Experimental data as given in PMC4190031 (Cell, 2014).
Square brackets hold non-standard residues; d marks the D form. Ends that are not written are not given here.

Target: T1, MitTx β subunit (Texas coral snake, UniProt G9I930 31-149)
T1 sequence: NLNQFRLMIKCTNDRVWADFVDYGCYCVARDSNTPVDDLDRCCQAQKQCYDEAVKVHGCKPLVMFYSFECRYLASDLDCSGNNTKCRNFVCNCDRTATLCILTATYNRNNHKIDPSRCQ
Assay: crystal structure

B1: MitTx α subunit (natural protein)
chain: [PCA]IRPAFCYEDPPFFQKCGAFVDSYYFNRSRITCVHFFYGQCDVNQNHFTTMSECNRVCHG
modifications: cysteine pairing not given here
  binding result: binds
